In US20120214741:

Target: VDAC of isolated rat mitochondria (liver, brain) (UniProt Q9Z2L0)
Sequence (Q9Z2L0 2-283): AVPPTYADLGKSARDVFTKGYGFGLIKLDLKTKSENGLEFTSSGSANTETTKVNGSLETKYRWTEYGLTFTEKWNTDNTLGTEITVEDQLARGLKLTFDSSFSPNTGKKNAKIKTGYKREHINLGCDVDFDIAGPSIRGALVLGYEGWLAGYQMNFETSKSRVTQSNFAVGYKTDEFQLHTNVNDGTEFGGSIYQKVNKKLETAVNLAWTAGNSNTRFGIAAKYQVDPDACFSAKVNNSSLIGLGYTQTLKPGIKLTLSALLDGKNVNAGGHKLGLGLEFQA

Substance: yeast HK
- PTP opening (swelling of energized mitochondria): The failure of non-binding species of HK, such as yeast HK, or trypsin- or chymotrypsin-treated HK-I (FIG. 2D) to prevent PTP opening
